Results published in patent US7250164.

Target: HmenB3 monoclonal antibody against Neisseria meningitidis serogroup B capsular polysaccharide
Test: cell-based or functional assay

B1: Naid60 anti-idiotypic monoclonal antibody (Ab2) to HmenB3 (antibody, IgG1, V domains shown)
VH: EVKLVESGGGLVQPGGSLKLSCATSGFLFTDYYMFWVRQTPEKRLEWVAYISNGGGDTYYPDTVKGRFTISRDNAKNALYLQMSRLKSEDTAMYYCARHKGYYGYYYALDYWGQGT
VL: DIQLTQSPATLSVTPGDSVSLSCRASQSISNNLHWYQQKSHESPRLLIKYASQSISGIPSRFSGSGSGTDFTLSINSVETEDFGMYFCQQSNNWPLTFGAGTK
  bacterial cell death rate (complement-mediated bactericidal activity of HmenB3 against NMGB) at 4 mg/L Naid60: 57.7%
  bacterial cell death rate (complement-mediated bactericidal activity of HmenB3 against NMGB) at 40 mg/L Naid60: 0%
